B1: Septin-12 (Homo sapiens), Q8IYM1 (parent)
chain: MDPLRRSPSPCLSSQPSSPSTPPCEMLGPVGIEAVLDQLKIKAMKMGFEFNIMVVGQSGLGKSTMVNTLFKSKVWKSNPPGLGVPTPQTLQLHSLTHVIEEKGVKLKLTVTDTPGFGDQINNDNCWDPILGYINEQYEQYLQEEILITRQRHIPDTRVHCCVYFVPPTGHCLRPLDIEFLQRLCRTVNVVPVIARADSLTMEEREAFRRRIQQNLRTHCIDVYPQMCFDEDINDKILNSKLRDRIPFAVVGADQEHLVNGRCVLGRKTKWGIIEVENMAHCEFPLLRDLLIRSHLQDLKDITHNIHYENYRVIRLNESHLLPRGPGWVNLAPASPGQLTTPRTFKVCRGAHDDSDDEF
partner: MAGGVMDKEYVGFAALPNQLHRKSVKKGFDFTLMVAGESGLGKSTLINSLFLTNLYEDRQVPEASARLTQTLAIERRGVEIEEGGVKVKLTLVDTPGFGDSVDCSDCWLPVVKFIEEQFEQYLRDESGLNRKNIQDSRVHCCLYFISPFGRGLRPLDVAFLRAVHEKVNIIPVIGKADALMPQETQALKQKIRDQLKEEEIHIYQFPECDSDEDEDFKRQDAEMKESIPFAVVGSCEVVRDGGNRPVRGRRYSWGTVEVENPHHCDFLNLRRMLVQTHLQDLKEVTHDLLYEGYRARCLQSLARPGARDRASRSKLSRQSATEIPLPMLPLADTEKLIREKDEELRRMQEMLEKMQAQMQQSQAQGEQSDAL
B2: RNA-binding protein 15 (Homo sapiens), Q96T37-3 (parent)
chain: MRTAGRDPVPRRSPRWRRAVPLCETSAGRRVTQLRGDDLRRPATMKGKERSPVKAKRSRGGEDSTSRGERSKKLGGSGGSNGSSSGKTDSGGGSRRSLHLDKSSSRGGSREYDTGGGSSSSRLHSYSSPSTKNSSGGGESRSSSRGGGGESRSSGAASSAPGGGDGAEYKTLKISELGSQLSDEAVEDGLFHEFKRFGDVSVKISHLSGSGSGDERVAFVNFRRPEDARAAKHARGRLVLYDRPLKIEAVYVSRRRSRSPLDKDTYPPSASVVGASVGGHRHPPGGGGGQRSLSPGGAALGYRDYRLQQLALGRLPPPPPPPLPRDLERERDYPFYERVRPAYSLEPRVGAGAGAAPFREVDEISPEDDQRANRTLFLGNLDITVTESDLRRAFDRFGVITEVDIKRPSRGQTSTYGFLKFENLDMSHRAKLAMSGKIIIRNPIKIGYGKATPTTRLWVGGLGPWVPLAALAREFDRFGTIRTIDYRKGDSWAYIQYESLDAAHAAWTHMRGFPLGGPDRRLRVDFADTEHRYQQQYLQPLPLTHYELVTDAFGHRAPDPLRGARDRTPPLLYRDRDRDLYPDSDWVPPPPPVRERSTRTAATSVPAYEPLDSLDRRRDGWSLDRDRGDRDLPSSRDQPRKRRLPEESGGRHLDRSPESDRPRKRHCAPSPDRSPELSSSRDRYNSDNDRSSRLLLERPSPIRDRRGSLEKSQGDKRDRKNSASAERDRKHRTTAPTEGKSPLKKEDRSDGSAPSTSTASSKLKSPSQKQDGGTAPVASASPKLCLAWQGMLLLKNSNFPSNMHLLQGDLQVASSLLVEGSTGGKVAQLKITQRLRLDQPKLDEVTRRIKVAGPNGYAILLAVPGSSDSRSSSSSAASDTATSTQRPLRNLVSYLKQKQAAGVISLPVGGNKDKENTGVLHAFPPCEFSQQFLDSPAKALAKSEEDYLVMIIVRAKLVEQRMKIWNSKL
B3: Isoform 1 of Myotubularin-related protein 9 (Homo sapiens), Q96QG7-1 (parent)
chain: MEFAELIKTPRVDNVVLHRPFYPAVEGTLCLTGHHLILSSRQDNTEELWLLHSNIDAIDKRFVGSLGTIIIKCKDFRIIQLDIPGMEECLNIASSIEALSTLDSITLMYPFFYRPMFEVIEDGWHSFLPEQEFELYSSATSEWRLSYVNKEFAVCPSYPPIVTVPKSIDDEALRKVATFRHGGRFPVLSYYHKKNGMVIMRSGQPLTGTNGRRCKEDEKLINATLRAGKRGYIIDTRSLNVAQQTRAKGGGFEQEAHYPQWRRIHKSIERYHILQESLIKLVEACNDQTHNMDRWLSKLEASNWLTHIKEILTTACLAAQCIDREGASILIHGTEGTDSTLQVTSLAQIILEPRSRTIRGFEALIEREWLQAGHPFQQRCAQSAYCNTKQKWEAPVFLLFLDCVWQILRQFPCSFEFNENFLIMLFEHAYASQFGTFLGNNESERCKLKLQQKTMSLWSWVNQPSELSKFTNPLFEANNLVIWPSVAPQSLPLWEGIFLRWNRSSKYLDEAYEEMVNIIEYNKELQAKVNILRRQLAELETEDGMQESP
B4: Barrier-to-autointegration factor (Homo sapiens), O75531 (parent)
chain: MTTSQKHRDFVAEPMGEKPVGSLAGIGEVLGKKLEERGFDKAYVVLGQFLVLKKDEDLFREWLKDTCGANAKQSRDCFGCLREWCDAFL
partner: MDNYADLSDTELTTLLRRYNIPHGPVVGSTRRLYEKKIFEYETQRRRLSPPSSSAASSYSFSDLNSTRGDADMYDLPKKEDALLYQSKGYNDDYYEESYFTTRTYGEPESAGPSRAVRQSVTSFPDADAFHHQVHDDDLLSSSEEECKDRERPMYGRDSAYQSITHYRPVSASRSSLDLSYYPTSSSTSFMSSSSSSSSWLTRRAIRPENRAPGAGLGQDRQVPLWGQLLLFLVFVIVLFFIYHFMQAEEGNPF

Variants of: B1
Details: with sept1_human SEPTIN1, Q8WYJ6

| effect of a mutation on the interaction | Variant |
| --- | --- |
| disrupting interaction strength | MDPLRRSPSPCLSSQPSSPSTPPCEMLGPVGIEAVLDQLKIKAMKMGFEFNIMVVGQSGLGKSTMVNTLFKSKVWKSNPPGLGVPTPQTLQLHSLTHVIEEKGVKLKLTVTDTPGFGDQINNDNCWDPILGYINEQYEQYLQEEILITRQRHIPDTRVHCCVYFVPPTEHCLRPLDIEFLQRLCRTVNVVPVIARADSLTMEEREAFRRRIQQNLRTHCIDVYPQMCFDEDINDKILNSKLRDRIPFAVVGADQEHLVNGRCVLGRKTKWGIIEVENMAHCEFPLLRDLLIRSHLQDLKDITHNIHYENYRVIRLNESHLLPRGPGWVNLAPASPGQLTTPRTFKVCRGAHDDSDDEF [G169E] |

Variants of: B1
Details: with sept1_human SEPTIN1, Q8WYJ6
Remark: another data set of the same source

| effect of a mutation on the interaction | Variant |
| --- | --- |
| disrupting interaction strength | MDPLRRSPSPCLSSQPSSPSTPPCEMLGPVGIEAVLDQLKIKAMKMGFEFNIMVVGQSGLGKSTMVNTLFKSKVWKSNPPGLGVPTPQTLQLHSLTHVIEEKGVKLKLTVTDTPGFGDQINNDNCWDPILGYINEQYEQYLQEEILITRQRHIPDTRVHCCVYFVPPTGHCLRPLDIEFLQRLCRTVNVVPVIARADSLTMEEQEAFRRRIQQNLRTHCIDVYPQMCFDEDINDKILNSKLRDRIPFAVVGADQEHLVNGRCVLGRKTKWGIIEVENMAHCEFPLLRDLLIRSHLQDLKDITHNIHYENYRVIRLNESHLLPRGPGWVNLAPASPGQLTTPRTFKVCRGAHDDSDDEF [R204Q] |
| disrupting interaction strength | MDPLRRSPSPCLSSQPSSPSTPPCEMLGPVGIEAVLDQLKIKAMKMGFEFNIMVVGQSGLGKSTMVNTLFKSNVWKSNPPGLGVPTPQTLQLHSLTHVIEEKGVKLKLTVTDTPGFGDQINNDNCWDPILGYINEQYEQYLQEEILITRQRHIPDTRVHCCVYFVPPTGHCLRPLDIEFLQRLCRTVNVVPVIARADSLTMEEREAFRRRIQQNLRTHCIDVYPQMCFDEDINDKILNSKLRDRIPFAVVGADQEHLVNGRCVLGRKTKWGIIEVENMAHCEFPLLRDLLIRSHLQDLKDITHNIHYENYRVIRLNESHLLPRGPGWVNLAPASPGQLTTPRTFKVCRGAHDDSDDEF [K73N] |
| disrupting interaction strength | MDPLRRSPSPCLSSQPSSPSTPPCEMLGPVGIEAVLDQLKIKAMKMGFEFNIMVVGQSGLGKSTMVNTLFKSKVWKSNPPGLGVPTPQTLQLHSLTHVIEEKGVKLKLTVTDTPGFGDQINNDNCWDPILGYINEQYEQYLQEEILITRQRHIPDTRVHCCVYFVPPTGHCLRPLDIEFLQRLCRTVNVVPVIARADSLTMEEREAFRRRIQRNLRTHCIDVYPQMCFDEDINDKILNSKLRDRIPFAVVGADQEHLVNGRCVLGRKTKWGIIEVENMAHCEFPLLRDLLIRSHLQDLKDITHNIHYENYRVIRLNESHLLPRGPGWVNLAPASPGQLTTPRTFKVCRGAHDDSDDEF [Q213R] |

Variants of: B2
Details: with nav2_human NAV2, Q8IVL1
Sequence of nav2_human NAV2, Q8IVL1 (Q8IVL1 whole entry): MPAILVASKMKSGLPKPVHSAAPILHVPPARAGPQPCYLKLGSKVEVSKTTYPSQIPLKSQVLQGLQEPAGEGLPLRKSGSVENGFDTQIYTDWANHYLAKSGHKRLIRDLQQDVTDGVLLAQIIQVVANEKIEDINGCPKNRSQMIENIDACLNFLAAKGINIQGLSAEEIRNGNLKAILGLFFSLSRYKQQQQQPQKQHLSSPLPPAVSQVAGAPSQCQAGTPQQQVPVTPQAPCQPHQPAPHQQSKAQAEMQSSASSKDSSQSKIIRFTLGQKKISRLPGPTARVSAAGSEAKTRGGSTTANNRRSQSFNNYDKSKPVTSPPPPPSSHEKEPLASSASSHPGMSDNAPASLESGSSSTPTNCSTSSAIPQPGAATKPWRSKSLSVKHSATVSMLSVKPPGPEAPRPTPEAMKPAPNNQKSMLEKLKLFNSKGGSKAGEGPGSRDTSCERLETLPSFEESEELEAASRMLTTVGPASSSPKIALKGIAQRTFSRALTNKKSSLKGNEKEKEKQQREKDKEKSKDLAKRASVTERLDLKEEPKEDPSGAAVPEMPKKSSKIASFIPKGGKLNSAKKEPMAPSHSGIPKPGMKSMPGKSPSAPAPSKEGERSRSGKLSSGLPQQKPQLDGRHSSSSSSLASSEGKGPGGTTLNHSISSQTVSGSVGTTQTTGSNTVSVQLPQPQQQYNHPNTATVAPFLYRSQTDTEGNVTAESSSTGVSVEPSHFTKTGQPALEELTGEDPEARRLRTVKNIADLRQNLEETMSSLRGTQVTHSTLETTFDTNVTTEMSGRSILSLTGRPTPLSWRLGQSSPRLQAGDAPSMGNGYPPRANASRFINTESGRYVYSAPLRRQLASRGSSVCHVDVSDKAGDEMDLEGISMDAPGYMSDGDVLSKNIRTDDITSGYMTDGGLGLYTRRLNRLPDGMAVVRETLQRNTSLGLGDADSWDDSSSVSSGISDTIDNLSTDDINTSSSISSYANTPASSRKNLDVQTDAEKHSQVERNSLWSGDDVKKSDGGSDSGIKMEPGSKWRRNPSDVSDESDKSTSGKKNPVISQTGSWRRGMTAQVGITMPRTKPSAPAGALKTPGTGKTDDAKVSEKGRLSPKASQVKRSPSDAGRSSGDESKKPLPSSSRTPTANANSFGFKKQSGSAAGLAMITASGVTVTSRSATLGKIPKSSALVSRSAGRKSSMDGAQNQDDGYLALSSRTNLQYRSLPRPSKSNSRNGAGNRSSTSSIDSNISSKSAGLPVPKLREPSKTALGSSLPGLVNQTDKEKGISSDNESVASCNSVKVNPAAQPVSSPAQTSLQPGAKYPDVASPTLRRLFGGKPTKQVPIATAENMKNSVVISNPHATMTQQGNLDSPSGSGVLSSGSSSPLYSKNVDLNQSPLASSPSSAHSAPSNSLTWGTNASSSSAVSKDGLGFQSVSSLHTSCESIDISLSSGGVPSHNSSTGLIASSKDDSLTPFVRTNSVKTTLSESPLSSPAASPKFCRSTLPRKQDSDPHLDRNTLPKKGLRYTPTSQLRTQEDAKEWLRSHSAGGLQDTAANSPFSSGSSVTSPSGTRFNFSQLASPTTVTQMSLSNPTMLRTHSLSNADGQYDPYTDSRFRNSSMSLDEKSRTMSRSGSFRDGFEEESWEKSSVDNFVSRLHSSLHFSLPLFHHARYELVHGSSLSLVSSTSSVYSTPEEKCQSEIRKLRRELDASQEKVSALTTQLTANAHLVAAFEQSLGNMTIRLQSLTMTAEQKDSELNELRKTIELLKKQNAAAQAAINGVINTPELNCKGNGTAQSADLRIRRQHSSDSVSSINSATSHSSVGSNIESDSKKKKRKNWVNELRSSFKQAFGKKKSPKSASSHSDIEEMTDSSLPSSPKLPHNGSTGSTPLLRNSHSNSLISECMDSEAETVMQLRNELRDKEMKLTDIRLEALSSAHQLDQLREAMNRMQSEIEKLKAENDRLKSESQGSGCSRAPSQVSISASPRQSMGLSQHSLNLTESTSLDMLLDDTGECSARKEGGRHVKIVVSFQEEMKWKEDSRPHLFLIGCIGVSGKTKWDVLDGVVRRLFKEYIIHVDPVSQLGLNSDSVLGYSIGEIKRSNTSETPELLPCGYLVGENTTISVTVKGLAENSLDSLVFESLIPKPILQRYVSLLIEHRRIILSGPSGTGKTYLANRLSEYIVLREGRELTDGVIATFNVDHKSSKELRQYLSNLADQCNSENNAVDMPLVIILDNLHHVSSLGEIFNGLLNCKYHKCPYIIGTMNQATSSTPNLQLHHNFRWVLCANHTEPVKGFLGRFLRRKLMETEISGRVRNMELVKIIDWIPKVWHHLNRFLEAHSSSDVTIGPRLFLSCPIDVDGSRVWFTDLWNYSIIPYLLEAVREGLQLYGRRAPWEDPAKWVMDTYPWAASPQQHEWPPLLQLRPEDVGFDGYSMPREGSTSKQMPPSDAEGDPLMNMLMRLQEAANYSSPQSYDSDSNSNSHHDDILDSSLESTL

| effect of a mutation on the interaction | Variant |
| --- | --- |
| disrupting interaction strength | R961Q |

Variants of: B3
Details: with emil1_human EMILIN1, Q9Y6C2
Sequence of emil1_human EMILIN1, Q9Y6C2 (Q9Y6C2 whole entry): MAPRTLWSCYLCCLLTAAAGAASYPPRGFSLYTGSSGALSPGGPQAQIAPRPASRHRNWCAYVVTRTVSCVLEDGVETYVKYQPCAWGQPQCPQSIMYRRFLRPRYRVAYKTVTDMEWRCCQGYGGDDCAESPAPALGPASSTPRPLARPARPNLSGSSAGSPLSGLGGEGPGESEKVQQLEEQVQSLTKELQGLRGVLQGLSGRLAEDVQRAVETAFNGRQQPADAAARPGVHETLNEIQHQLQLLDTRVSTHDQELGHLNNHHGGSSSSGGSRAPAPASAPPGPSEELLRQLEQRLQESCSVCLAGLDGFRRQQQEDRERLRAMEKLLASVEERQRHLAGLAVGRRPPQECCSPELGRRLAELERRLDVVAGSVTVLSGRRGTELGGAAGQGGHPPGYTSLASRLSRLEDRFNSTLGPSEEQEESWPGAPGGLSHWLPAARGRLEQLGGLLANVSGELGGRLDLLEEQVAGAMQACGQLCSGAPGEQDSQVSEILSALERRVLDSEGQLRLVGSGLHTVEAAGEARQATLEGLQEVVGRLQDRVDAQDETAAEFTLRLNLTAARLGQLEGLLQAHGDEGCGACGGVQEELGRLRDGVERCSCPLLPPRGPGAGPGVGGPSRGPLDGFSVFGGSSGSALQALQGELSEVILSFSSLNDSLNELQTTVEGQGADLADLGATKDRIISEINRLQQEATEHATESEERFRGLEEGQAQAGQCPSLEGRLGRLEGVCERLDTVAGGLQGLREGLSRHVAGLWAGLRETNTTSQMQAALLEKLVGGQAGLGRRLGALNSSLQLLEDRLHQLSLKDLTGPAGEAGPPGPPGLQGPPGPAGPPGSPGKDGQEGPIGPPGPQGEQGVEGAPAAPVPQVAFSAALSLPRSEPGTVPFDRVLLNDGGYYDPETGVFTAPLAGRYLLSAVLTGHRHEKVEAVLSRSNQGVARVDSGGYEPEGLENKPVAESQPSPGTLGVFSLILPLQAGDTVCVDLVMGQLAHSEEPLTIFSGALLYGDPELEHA

| effect of a mutation on the interaction | Variant |
| --- | --- |
| with no effect | MEFAELIKTPRVDNVVLHRPFYPAVEGTLCLTGHHLILSSRQDNTEELWLLHSNIDAIDKRFVGSLGTIIIKCKDFRIIQLDIPGMEECLNIASSIEALSTLDSITLMYPFFYRPMFEVIEDGWHSILPEQEFELYSSATSEWRLSYVNKEFAVCPSYPPIVTVPKSIDDEALRKVATFRHGGRFPVLSYYHKKNGMVIMRSGQPLTGTNGRRCKEDEKLINATLRAGKRGYIIDTRSLNVAQQTRAKGGGFEQEAHYPQWRRIHKSIERYHILQESLIKLVEACNDQTHNMDRWLSKLEASNWLTHIKEILTTACLAAQCIDREGASILIHGTEGTDSTLQVTSLAQIILEPRSRTIRGFEALIEREWLQAGHPFQQRCAQSAYCNTKQKWEAPVFLLFLDCVWQILRQFPCSFEFNENFLIMLFEHAYASQFGTFLGNNESERCKLKLQQKTMSLWSWVNQPSELSKFTNPLFEANNLVIWPSVAPQSLPLWEGIFLRWNRSSKYLDEAYEEMVNIIEYNKELQAKVNILRRQLAELETEDGMQESP [F127I] |

Variants of: B3
Details: with lnx1_human LNX1, Q8TBB1
Sequence of lnx1_human LNX1, Q8TBB1 (Q8TBB1 whole entry): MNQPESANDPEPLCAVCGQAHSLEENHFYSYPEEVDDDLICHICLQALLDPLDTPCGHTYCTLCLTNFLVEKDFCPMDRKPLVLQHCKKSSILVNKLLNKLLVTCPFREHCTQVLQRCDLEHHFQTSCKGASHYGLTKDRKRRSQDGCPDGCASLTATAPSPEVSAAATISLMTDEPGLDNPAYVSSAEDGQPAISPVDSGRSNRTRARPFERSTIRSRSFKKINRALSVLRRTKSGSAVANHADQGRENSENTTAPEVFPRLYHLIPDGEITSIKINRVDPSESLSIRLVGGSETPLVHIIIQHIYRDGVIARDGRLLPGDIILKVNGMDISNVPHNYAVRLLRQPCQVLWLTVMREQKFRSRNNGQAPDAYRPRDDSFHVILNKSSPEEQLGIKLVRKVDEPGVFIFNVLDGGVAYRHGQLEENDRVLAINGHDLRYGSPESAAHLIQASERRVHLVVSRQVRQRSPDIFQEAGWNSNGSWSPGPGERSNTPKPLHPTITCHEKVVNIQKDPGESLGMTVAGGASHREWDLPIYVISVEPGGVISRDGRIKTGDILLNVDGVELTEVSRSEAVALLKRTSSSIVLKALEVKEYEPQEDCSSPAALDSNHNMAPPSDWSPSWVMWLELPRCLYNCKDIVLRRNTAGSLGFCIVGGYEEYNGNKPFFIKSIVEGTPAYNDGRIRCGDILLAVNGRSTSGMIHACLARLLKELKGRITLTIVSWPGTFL

| effect of a mutation on the interaction | Variant |
| --- | --- |
| with no effect | MEFAELIKTPRVDNVVLHRPFYPAVEGTLCLTGHHLILSSRQDNTEELWLLHSNIDAIDKRFVGSLGTIIIKCKDFRIIQLDIPGMEECLNIASSIEALSTLDSITLMYPFFYRPMFEVIEDGWHSILPEQEFELYSSATSEWRLSYVNKEFAVCPSYPPIVTVPKSIDDEALRKVATFRHGGRFPVLSYYHKKNGMVIMRSGQPLTGTNGRRCKEDEKLINATLRAGKRGYIIDTRSLNVAQQTRAKGGGFEQEAHYPQWRRIHKSIERYHILQESLIKLVEACNDQTHNMDRWLSKLEASNWLTHIKEILTTACLAAQCIDREGASILIHGTEGTDSTLQVTSLAQIILEPRSRTIRGFEALIEREWLQAGHPFQQRCAQSAYCNTKQKWEAPVFLLFLDCVWQILRQFPCSFEFNENFLIMLFEHAYASQFGTFLGNNESERCKLKLQQKTMSLWSWVNQPSELSKFTNPLFEANNLVIWPSVAPQSLPLWEGIFLRWNRSSKYLDEAYEEMVNIIEYNKELQAKVNILRRQLAELETEDGMQESP [F127I] |

Variants of: B4
Details: with emd_human EMD

| effect of a mutation on the interaction | Variant |
| --- | --- |
| with no effect | MTTSQKHRDFVTEPMGEKPVGSLAGIGEVLGKKLEERGFDKAYVVLGQFLVLKKDEDLFREWLKDTCGANAKQSRDCFGCLREWCDAFL [A12T] |

— IntAct's records for PubMed 31515488
